The results in this text go back to the supplement of paper PMC12764529.

± gives the half width of the 95% confidence interval.

Data set [1] in a line: folding stability dG unfold from trypsin proteolysis; higher = more stable. Summed up: (§1)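 Digests were run with trypsin and chymotrypsin at 11 concentrations in threefold dilutions, plus a no-protease condition, on designed mini-proteins in a PA-tagged cDNA display construct. The mini-proteins were under 80 residues, had no cysteine, and were kept only when AlphaFold2 dimer inter-PAE was above 15. After sequencing, Bayesian fitting of the counts gave K50, from which unfolding free energy was derived against a sequence-predicted unfolded-state K50 and a shared folded-state K50, per protease or combined.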

The nature of data set [2]: folding stability dG unfold from chymotrypsin proteolysis; higher = more stable. Summed up:
as §1

The nature of data set [3]: folding stability dG unfold (combined trypsin and chymotrypsin); higher = more stable. Summed up:
as §1

For “SAGGSPHVSTDAADPELAARLLREAFGTDEVPLVRRDPTTGALLAFLPATGRLVWTDRTTVRVEPSSAGGSA [r2_205_TrMRF]”, the “folding stability dG unfold” value in data set [1] is 1.36 ± 0.544 kJ/mol; in data set [2], -0.364 ± 0.544 kJ/mol; in data set [3] it was 0.545 ± 0.31 kJ/mol.
In the case of “SAGGSPIIRVKVTYYPPDGSVTVYLPADSVDELIDALNSVPDIPVTPTDGDTIIASTPDAIVEITVESSAGG [r13_143_TrMRF]”, the figures for the “folding stability dG unfold” value in data set [1], in data set [2] and in data set [3] were 1.97 ± 0.13 kJ/mol, 3.55 ± 0.134 kJ/mol and 3 ± 0.406 kJ/mol, respectively.
Taken in the same sequence, the figures for “SAGGSPIQTAVTTNTLGNETITTTTLVPPEAVATSVTTVYEPDPNSDNYVVKSVLTTTTSTLPPSDAASAGG [r13_568_JUSTAS]” were -1.74 ± 0.23 kJ/mol, 0.254 ± 0.28 kJ/mol and -0.362 ± 0.259 kJ/mol.
Taken in the same sequence, the figures for “SAGGSPISLEVSTSTLPDGTLRVTTTATSPDSSRSYTVTLDFPPSQPEEIPARAAAEAAAIAADPAVASAGG [r13_968_JUSTAS]” were -2.31 ± 0.795 kJ/mol, 5.65 ± 0.243 kJ/mol and 3.79 ± 0.36 kJ/mol.
With “SAGGSPMRIRDVEIEEFDPDAGRIEIRFPSNGNTIKIPIPPGHKSLKIKIRMKNGEPFEQTITIPPSAGGSA [r2_132_TrROS]”, the “folding stability dG unfold” value in data set [1] came out at 2.42 ± 0.586 kJ/mol; in data set [2] it was 4.52 ± 0.502 kJ/mol; in data set [3], 4.21 ± 0.92 kJ/mol.
Taken in the same sequence, the figures for “SAGGSPPPLRITYKIRMGGQPFEWTIPIPADDLPPGQQIEIDIRIKKMDPENNRMRMEIDDVEVTPSAGGSA [r2_479_TrROS]” were -0.875 ± 1.34 kJ/mol, 4.1 ± 1.13 kJ/mol and 3.18 ± 0.795 kJ/mol.
Take “SAGGSPTIKLEILLPKEMTPEEVEALARELEEAGYEIVSIKVETVKDEDGREWVRVTITLRPKEDLSAGGSA [r2_442_TrROS_Hall]”: the “folding stability dG unfold” value in data set [1] is 13.4 ± 0.318 kJ/mol; in data set [2], 16.6 ± 0.188 kJ/mol; in data set [3], 15.6 ± 0.385 kJ/mol.
The corresponding values for “SAGGSPTREVVLPTKDPTADKAFYTVRITLTEPPSNSTAVTVTFLDLPPDVEPSPELVAAVEAALSSAGGSA [r2_7_JUSTAS]” are 1.93 ± 0.151 kJ/mol, 1.82 ± 0.544 kJ/mol and 2.07 ± 0.234 kJ/mol.
The corresponding values for “SAGGSPVYKVEIRMTIVDKNGTVKSIVNLELTFKTEEEIEKFLESIPKETVVEIEIEKRTVEPPEKLSAGGS [r16_677_JUSTAS]” are 8.87 ± 0.23 kJ/mol, 2.92 ± 0.285 kJ/mol and 5.91 ± 0.46 kJ/mol.
Taken in the same sequence, the figures for “SAGGSQEELAKQLAEELAKKEGLKEVKVSITPSPGPVLNITFEFYDENGNKKGVKSKTIPLPPDLLSAGGSA [r2_153_JUSTAS]” were 4.45 ± 0.46 kJ/mol, 0.339 ± 0.628 kJ/mol and 2.16 ± 2.22 kJ/mol.
Turning to “SAGGSSEIVELKSIEKKGNSVILTLESKTNDYKVVVVIEGNKIRAYVFDKNGNIIAEFEFDGHPYLSAGGSA [r2_437_TrMRF]”, the “folding stability dG unfold” value in data set [1] stood at 10.1 ± 0.46 kJ/mol; in data set [2] it was 14 ± 0.192 kJ/mol; in data set [3], 13.2 ± 0.628 kJ/mol.
Taken in the same sequence, the figures for “SAGGSSIKIEKIEKHENGVKIDISVPDLSNEEEINAVKKKLAEELGLKEEDVEVSLKSENIPLPPSIGSAGG [r13_430_JUSTAS]” were 1.98 ± 0.46 kJ/mol, 9.71 ± 0.879 kJ/mol and 7.31 ± 0.92 kJ/mol.
Taken in the same sequence, the figures for “SAGGSSIKIPNPNGYEIEIEVTPDRAKIKWRMPGKEQEQEFPPGEDVTIRFPDGMPLTIKIPPPGESAGGSA [r2_57_TrROS]” were 1.91 ± 0.372 kJ/mol, 0.644 ± 1.09 kJ/mol and 1.77 ± 0.544 kJ/mol.
Regarding “SAGGSSKTEIYYNPKKPYFLIKVTYKNGKTKEYPIKGKGMSLEELKKKAEEIVKELNSEEFKEVVFNPSAGG [r13_267_TrMRF]”, the “folding stability dG unfold” value came out at 8.44 ± 0.502 kJ/mol in data set [1], 10.5 ± 0.343 kJ/mol in data set [2] and 10.6 ± 0.586 kJ/mol in data set [3].
The corresponding values for “SAGGSSMKTSETTDPANGTPVRVETSIDPATNKVTTTVTTPDGTTVGSGTITIPPESSVTTTTTTTTPASAG [r5_747_JUSTAS]” are 3.32 ± 0.331 kJ/mol, 6.23 ± 0.381 kJ/mol and 5.05 ± 0.46 kJ/mol.
The corresponding values for “SAGGSSMRKLIIIGPEGVTLERPIGPERTVEDVKAEWEAIGNVKFEEYPETGEVVVYLPEEALKEKSAGGSA [r2_164_JUSTAS]” are 2.52 ± 0.226 kJ/mol, 6.13 ± 0.121 kJ/mol and 5.1 ± 0.335 kJ/mol.
Taken in the same sequence, the figures for “SAGGSSPPGVKVEVTVEVTYIPSKGGYKLTFYRPGGEKVDTKELEKDKLEEAKEELKAKGFDVVKIKKSAGG [r13_765_JUSTAS]” were -1.68 ± 1.72 kJ/mol, 3.69 ± 0.753 kJ/mol and 1.45 ± 0.879 kJ/mol.
On to “SAGGSSSMVTRTPSTSTVTVKRGNGPVTVSLPTTVVTRPDGSRTLETTVDTKDPAGNPAATTVTPAPSAGGS [r16_581_JUSTAS]”, for which the figures for the “folding stability dG unfold” value in data set [1], in data set [2] and in data set [3] were 0.152 ± 0.418 kJ/mol, 4.1 ± 0.201 kJ/mol and 2.69 ± 0.389 kJ/mol, respectively.
